From the DeepSol protein solubility set

experiment: soluble on expression in E. coli; label from the status in PepcDB or PDB records

| Sequence | soluble on expression in E. coli |
| --- | --- |
| MDVRRLKVNELREELQRRGLDTRGLKAELAERLQAALEAEEPDDERELDADDEPGRPGHINEEVETEGGSELEGTAQPPPPGLQPHAEPGGYSGPDGHYAMDNITRQNQFYDTQVIKQENESGYERRPLEMEQQQAYRPEMKTEMKQGAPTSFLPPEASQLKPDRQQFQSRKRPYEENRGRGYFEHREDRRGRSPQPPAEEDEDDFDDTLVAIDTYNCDLHFKVARDRSSGYPLTIEGFAYLWSGARASYGVRRGRVCFEMKINEEISVKHLPSTEPDPHVVRIGWSLDSCSTQLGEEPFSYGYGGTGKKSTNSRFENYGDKFAENDVIGCFADFECGNDVELSFTKNGKWMGIAFRIQKEALGGQALYPHVLVKNCAVEFNFGQRAEPYCSVLPGFTFIQHLPLSERIRGTVGPKSKAECEILMMVGLPAAGKTTWAIKHAASNPSKKYNILGTNAIMDKMRVMGLRRQRNYAGRWDVLIQQATQCLNRLIQIAARKKRNYILDQTNVYGSAQRRKMRPFEGFQRKAIVICPTDEDLKDRTIKRTDEEGKDVPDHAVLEMKANFTLPDVGDFLDEVLFIELQREEADKLVRQYNEEGRKAGPPPEKRFDNRGGGGFRGRGGGGGFQRYENRGPPGGNRGGFQNRGGGSGGGGNYRGGFNRSGGGGYSQNRWGNNNRDNNNSNNRGSYNRAPQQQPPPQQPPPPQPPPQQPPPPPSYSPARNPPGASTYNKNSNIPGSSANTSTPTVSSYSPPQPSYSQPPYNQGGYSQGYTAPPPPPPPPPAYNYGSYGGYNPAPYTPPPPPTAQTYPQPSYNQYQQYAQQWNQYYQNQGQWPPYYGNYDYGSYSGNTQGGTSTQ | soluble |
| MDWIESVKSYIKVVEEGSFNAAAYQLNTSGSAISKRINWLEERVGVQLLTRTTRSVHQTEAGLLFYQRARLQLDQWQHLVDETRAINQTPAGLLKIGATLAVGSKFIIKYLDEFLATYPKIKVQLITTLPGQVPEHNVDVFISRELEQLNTFSYKATHLFEHHSGFFASKDYLDKYGTPNNINELKAHNMLIWGERPIKEIKLTNNKRVTLRGNFATTNPEALFHAAKRGMGILLTSQQMVIDDLQSGALVPILPEITTDHTRVNAYYPTLDYEHTRTQLFIKYLKTKLS | not soluble |
| MDWYEPGEDTYTLMDALEREGLEMKIVLDLGTSTGVITEQLRKRNTVVSTDLNIRALESHRGGNLVRADLLCSINQESVDVVVFNPPYVPDTDDPIIGGGYLGREVIDRFVDAVTVGMLYLLVIEANRPKEVLARLEERGYGTRILKVRKILGETVYIIKGEKS | not soluble |
| MDYLSFIAVAAHEFVHTWNVKQYRPKGIVPYDYQQENYSNLLWLVEGSTSYLQYQLLLRGNLMTTDEFFTALAKRITAHAHKPGKESQSVAQASFDAWISEGGDYGNNHSVNILEHHHHHH | soluble |
| MDYMERPKLGLIVREPYASLIVDGRKVWEIRRRKTRHRGPLGIVSGGRLIGQADLVGVEGPFSVEELLAHQEKHLAEEAFLRAYAKDEPLYAWVLENAFRYEKPLHVPRRPGRVMFVDLSEVRW | soluble |
| MDYRIRTSRDEDAALLPAIERSAGESFRLLPELAWIADAGVAGVDFHRRLIERGSHWLAEDADGQPVGFLAAERCADELHIAELSIAQAHQQQGLGRRLLERAVTYAHASHCRALTLTTFCDVPWNAPFYARLGFQRLTWQEAGERLRAILGHEQEIGFAADSRCAMRLVL | not soluble |
| MEAIDQLVGQWQKDGLSPSQVAEKFSKCVLYVTCEPCIMCASALSFLGIKEVYYGCPNDKFGGCGSILSLHLGSEEAQRGKGYKCRGGIMAEEAVSLFKCFYEQGNPNAPKPHRPVVQRERT | soluble |
| MEARPRVAGIVLAAGKSTRMGRPKQLLPFRGRTVLECVVDNALASRLHRVVVVLGHEAEAVMPLLGHRCVTTVVNPLYGEGQSSSLKAGLGAMTEETDAALFLLGDQPLVTADTINLLIAAFADFPSPIVIPTFEGHRGNPVLFSRETFPRIEALSGDRGARGLFREYGDDIRSIDVRTPAILFDLDTEEDYLRLLREFPAVLEHHHHHH | not soluble |
| MEDCRGDGSRREIERRRKYGRELQDLREGGEEFEYYFFVSNVFRTKLQKMPGADYSAVKGGGLKLKAGKKNLFKVGKEKKKKNKDDKEKIDPDTVENGGWRKIADEFDMKGGTNVAIEVASGAGSTRTYVAAMDNGKFTIGFPHPEGEGPNPEEIFALVKTPDDSKISLKTGFGRYVGVDSEYQLVAMAEAIGSREQFVLVFQEGKTAFQAVSSPLFLSTVPNKEGHIYVASRTATENEMVNIRTDAIQEGPVDWRSVEDRKNARECETAYVKMYQHSKVDLKNRHIAIDVKDKKGVKKAQADGSAHELLLDRRMKMKSDRYC | not soluble |
| MEDDAPMNLCNEQFEEIEDSPIDDNDNESFYNADGDVELEEEEVHETPKNFKNGGRFKTNMTNPKVNDLTTIEEKNEDLRSAASSRSASRPASVMSDKSFSSQFEFQSGGENAIEEYTNQVFADENKADLLFPETSKFMNGASPPKDKHHSWEPSIHHYDKQPPPDIQTNSPVFGNLNHRKNKLIPQARAKPGANDNEIVERDNDENVPTTSDKSAFITSPMNSTNHDEKTSTPKRPTNRKIGQYQGPNFDLSSIYVGSPQHQNTSISTGQQMPTSSYSHAHSETMMTNQTINESMVRRVLNGNNKNQDLFAALEEARKRRAAQPSKPDFRINTTRTRVPIKPTSARHSGNVVSSTSNDNTTAASSKDLTTSRKAMETFRQNASMADATNSNTASMTSILSTISTARTDISRSSRNHGGGFSNTSVSTVIPANNGNVSLSHGRDGRDSVSSVRTMSRASSTSTVYAGSTFSGVSKPLRIHAKRVAFGCVAVGETLRVEVEVENISDRQCLVRASTDSTTPVYQILDNKLTMVDPKKSIKFQVSFSPSSVGRYQVIMSIEVPAQNFIHKIPMWGNGGIAKFVPTSPDLQQTINQSEYAMCTSCAKRISFKISNSAGTRDGFAMIKVFDSAMRQLPDGCVAFFPAPGFIVKKKSDKRVDIRIDSSYIDLHDENNFRTSSSLSTASTTSSFQRRILPGAKFFVHVVWGEETMRTRLRLLEVRTGQHQLIDGHDFTSFQFSDEEVLRAVPVGFPAIKPEDRDLFAASYRSFFINFFTSTTEFRAATSRKKKEICSNDDSTLLETTAFRNQTFVNDVTIVPNTRFSNRK | not soluble |
| MEDLALRPKTLDEYIGQERLKQKLRVYLEAAKARKEPLEHLLLFGPPGLGKTTLAHVIAHELGVNLRVTSGPAIEKPGDLAAILANSLEEGDILFIDEIHRLSRQAEEHLYPAMEDFVMDIVIGQGPAARTIRLELPRFTLIGATTRPGLITAPLLSRFGIVEHLEYYTPEELAQGVMRDARLLGVRITEEAALEIGRRSRGTMRVAKRLFRRVRDFAQVAGEEVITRERALEALAALGLDELGLEKRDREILEVLILRFGGGPVGLATLATALSEDPGTLEEVHEPYLIRQGLLKRTPRGRVATELAYRHLGYPPPVGPLLEP | soluble |
| MEECAVSGGFDVSPQELRTFAGKLDVHRSTAEEIAGLVTEADVPERSWGVVGLVVKSECTRMLGDLNELFTALQEGLRSGSEKFTGAAQDYTDQEEAVKELLSGLQVRLDERQGGR | not soluble |
| MEEDKNTLDLHTEAREEDRVAKAVALFKEGYNCSQSVVTAFADLYGFTREQALHMSASFGGGIGRMRETCGAACGMFLLAGLEKCAIEGKDRESKAANYALVQELAEEFKKRNGALRCADLLGLSGKEPVVSTPEARTERYYAKRPCARMVEEAARIWSEHLEKQKK | not soluble |
| MEEEFSMFIMSMSNSMSSLWPAPIEMDSIDEGTENVANIASRWSTCCNIIRLHIEQMIGCEVDVAVAKSTDLGVSMTRGNSDSKLEPISTLLSTISKTIESNGEANAEFAIREIEKMNKSCETEYKIKKFHWFIDVEMFLNIKLALLDREFPPNLTVYVIGELKTLYDDYEAAKEVATNFERSSVNLRFLLCPADLKELNREIIAEKRQKMSEKEIICRFGSDKFKIKLFKKQKIGSHVTLIDSISFLGFLPEIELCRQGFLGSKRSNKLKMDITTDSKLGNKILFSLSQYLLNETKRPQTALFSFSSKPKLRGFCIMVAYESENDETSITLIQLKASLGKCLWKTLKFVNQSGEHSRPLPDDSYEQIAPIERKQLKRRLSRIERIASSVEEKRAQFEAFAREYDALDARDAFMKFTSTWQTDQGLLTAPTPFEDDNNNK | not soluble |
| MEEFTWRVGGPQGGGIETAATLFARAVGKGGWWVATKREYHSNIMGRHSYLDVRLARKPVQAFRERVDFLVALDGETLARHLGEVREGGVVLYDPKVLELTLHKLPMLDHRVAEDLAKRLGQADPSLKEVLQAYAEAGVQPLPYPFEAVADRIGEALGVPSLKARRTLNTIAVAASLHLLSYPLEPLLQALALQFRGEVLELNRKVAEAVYREEAPRLPFRLEVLGPAPGRIYLTGAQAAALGKLAGGLRFQTYYPISPATDESVFLEAHTHLPGADVAVVQTEDEIAAVNMAVGAALAGAKAATATSGPGFSLMAEGLGFAGMIEAPLVVTLYQRGGPSTGLPTRTEQGDLMFAIRGGHGEYPRLVLASGDILDAFLDAQKALAWAWRYQTVVVHLLDKFLASLAQSLPKEALKVLSLDGEKRLSPREGFGPYQRYAPGEDGLSPFIPIGTPGGFYWMTSDEHDPLGHITEDVELRELQMEKRMEKLELARKEIPLEDQYTLFRDGEVLVLGWGTVKGTLLEALDHLEGVGYLHLRLLWPFPRIAPLLEGKTLVTVEHNYSGQLADLVQQETLKRVHHRVVKYNGRPITLEEAVEALKAVREGRAPERLVLRKGV | soluble |
| MEEGSAIDYQRVPPLSGTHYASTVSAGFYEATPLLGSLVHTLEHGAVIVYYDPDEISPEARQSLREFSSVHTGTWRSVVAVPNPNDDPRATYVVTAWQHELTIDSYDAETVHAFLSEYLGRGPENPVRLEHHHHHH | soluble |
| MEEKDWEGSPLSENEAGLLCYDDEEYQFGGPAPKLQFRYLSEIGELQLLGDEDDVVISLKDLYGEIAEGKYGCCWENYEVYRYLKGLGYILGRHGVPWTTKYAVNTTPSDEDESLCAAEFFQDRDSVTKLLSDMHICDARPVFDVYLPNSQFKKSSPGEPSFVTCFSG | soluble |
| MEELQYFPYERLRPNQREFIEIVKEAVKRGENLIVEAPTGFGKTISVLAGVLPYAISLGYKVVYLARTHKQMDRVIEELKKIRERNEVSGIEFRSRRDLCLHSYIQTFVQDAYTSMIVCKTLRKLGKCPFFENIKEKRDRVEEIVRFFLNSPPFPHEVLEYSELLELCPYEITKKIGEKANVIVASYLYMISPPIRQAFLENLGVDYSDLIVIFDEAHNLPDQAISALSDRLSIRSIERAIKEAEEYGEKDIENFLSILLRGLEILYKEKLENYESEEVPIRPEEVFLHVASVLGWSGREIGMMLEDMIEVGDAIREDRIERNLPPRSYVGRVGEFLWNWLALREREDYLHLFTKERGLALELVALDPSVALEFLEEVHSAIFMSGTLSPLEAFRDIIGVKAELKKFPRMIKRENAIVLVARDVSTRGIERSPSLYRRISEYIFEAVRNTPKNVGVFTASYEVLEGILSTNVHIKIEEEIGKKVFIEKRDAPSRENDEMIRAFKEESKGKGAVLFGVMGGRNSEGQDYSGDEMNGVVLVGIPYARPTPRVQAQIRYFEKKFPGKGRYYGYVLPAHRKLTQAAGRVHRSEEEKGSIVILDYRVLWKSVKKDLPDWMVETMIPVTLPHYENKTLEHHHHHH | not soluble |
| MEEWKTSFREIYGRSPTAGDISVAPNHIKAILQSEKKENDEKIEEKQAKRGVKRKNFEMKMMEGEQFSPIKKRVNLNQLGSENDKNPIPLRSSPRKKMIAIEVLPEKSMVSPKKKPVGSVPFEFDDFSPVKSYSASTSKSAVKSTLTPIKSPTKRAYQRPLRDLKMLLLPTPEKGQEVEGPVEEFDDETNEDVAKARSYNPAARKLGGSSKSDQNFQKINLRKKQFVRGKVTAEQKRKLKRKQMFKKKY | soluble |
